Legend:
Test in all cases: co-IP
[1] = biological target: Pdr5*-Myc (S. cerevisiae) (UniProt P33302)
[2] = biological target: Ste6*-GFP (S. cerevisiae) (UniProt P12866)
[3] = biological target: Hmg2-GFP (S. cerevisiae) (UniProt P12684)
Chain of UniProt P12684 (P12684 whole entry): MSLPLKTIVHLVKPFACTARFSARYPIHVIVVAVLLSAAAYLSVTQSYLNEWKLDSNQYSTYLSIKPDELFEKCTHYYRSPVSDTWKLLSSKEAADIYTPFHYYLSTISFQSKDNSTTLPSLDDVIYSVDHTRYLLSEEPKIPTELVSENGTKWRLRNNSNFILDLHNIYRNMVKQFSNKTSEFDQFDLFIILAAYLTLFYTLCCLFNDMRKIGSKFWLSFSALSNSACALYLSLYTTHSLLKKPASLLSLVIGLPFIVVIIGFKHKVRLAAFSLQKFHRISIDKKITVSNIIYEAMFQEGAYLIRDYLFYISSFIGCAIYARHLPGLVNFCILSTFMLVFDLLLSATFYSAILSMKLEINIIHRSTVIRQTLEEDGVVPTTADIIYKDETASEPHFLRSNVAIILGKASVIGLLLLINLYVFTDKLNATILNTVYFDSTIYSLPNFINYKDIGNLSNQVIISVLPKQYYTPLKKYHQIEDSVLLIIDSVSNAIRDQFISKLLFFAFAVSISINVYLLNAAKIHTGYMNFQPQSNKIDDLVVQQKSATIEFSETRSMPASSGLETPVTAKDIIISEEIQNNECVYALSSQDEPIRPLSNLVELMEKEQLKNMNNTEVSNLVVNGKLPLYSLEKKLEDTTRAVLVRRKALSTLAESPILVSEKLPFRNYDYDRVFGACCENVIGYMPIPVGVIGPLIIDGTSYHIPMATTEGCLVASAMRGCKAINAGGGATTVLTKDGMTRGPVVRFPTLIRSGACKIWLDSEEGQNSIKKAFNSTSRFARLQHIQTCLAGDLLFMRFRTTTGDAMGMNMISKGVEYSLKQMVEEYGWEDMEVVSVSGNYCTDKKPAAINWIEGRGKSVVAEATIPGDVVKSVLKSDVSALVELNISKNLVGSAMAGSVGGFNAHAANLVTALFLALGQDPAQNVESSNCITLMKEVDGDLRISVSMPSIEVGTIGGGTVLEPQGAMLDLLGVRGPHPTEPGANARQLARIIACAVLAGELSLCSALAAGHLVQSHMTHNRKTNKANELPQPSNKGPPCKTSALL

Chain of UniProt P12866 (P12866 whole entry): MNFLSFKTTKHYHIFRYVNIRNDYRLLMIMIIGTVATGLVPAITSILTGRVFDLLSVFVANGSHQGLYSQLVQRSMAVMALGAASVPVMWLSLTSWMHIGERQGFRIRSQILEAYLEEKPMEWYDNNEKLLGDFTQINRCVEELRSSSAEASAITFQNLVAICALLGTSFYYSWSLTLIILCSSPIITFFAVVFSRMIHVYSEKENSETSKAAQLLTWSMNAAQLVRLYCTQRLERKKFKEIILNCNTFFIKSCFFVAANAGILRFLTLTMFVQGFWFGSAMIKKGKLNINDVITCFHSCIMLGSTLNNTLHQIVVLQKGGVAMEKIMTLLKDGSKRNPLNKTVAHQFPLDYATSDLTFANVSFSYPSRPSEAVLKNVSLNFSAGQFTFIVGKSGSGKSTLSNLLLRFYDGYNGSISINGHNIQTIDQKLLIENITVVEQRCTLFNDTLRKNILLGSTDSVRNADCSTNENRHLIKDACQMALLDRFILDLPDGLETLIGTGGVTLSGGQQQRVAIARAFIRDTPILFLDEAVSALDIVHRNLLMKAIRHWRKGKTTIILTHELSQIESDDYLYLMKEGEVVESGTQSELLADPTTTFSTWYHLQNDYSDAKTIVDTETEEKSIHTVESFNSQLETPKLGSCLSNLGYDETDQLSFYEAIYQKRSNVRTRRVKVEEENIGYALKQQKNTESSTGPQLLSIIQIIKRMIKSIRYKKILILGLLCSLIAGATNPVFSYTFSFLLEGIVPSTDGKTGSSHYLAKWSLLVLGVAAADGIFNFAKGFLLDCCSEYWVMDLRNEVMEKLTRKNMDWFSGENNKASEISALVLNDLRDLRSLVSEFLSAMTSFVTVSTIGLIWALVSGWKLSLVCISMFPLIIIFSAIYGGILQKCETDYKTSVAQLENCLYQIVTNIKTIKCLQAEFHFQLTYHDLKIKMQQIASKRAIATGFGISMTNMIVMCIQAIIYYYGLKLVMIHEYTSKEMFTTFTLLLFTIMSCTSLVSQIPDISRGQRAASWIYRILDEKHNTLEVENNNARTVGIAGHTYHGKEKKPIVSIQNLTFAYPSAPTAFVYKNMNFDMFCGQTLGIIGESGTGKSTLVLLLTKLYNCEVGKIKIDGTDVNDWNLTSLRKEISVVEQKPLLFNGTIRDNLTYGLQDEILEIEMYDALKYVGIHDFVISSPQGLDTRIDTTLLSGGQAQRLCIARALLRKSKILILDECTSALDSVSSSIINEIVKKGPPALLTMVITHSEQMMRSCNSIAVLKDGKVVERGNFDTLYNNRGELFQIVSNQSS
Chain of UniProt P33302 (P33302 whole entry): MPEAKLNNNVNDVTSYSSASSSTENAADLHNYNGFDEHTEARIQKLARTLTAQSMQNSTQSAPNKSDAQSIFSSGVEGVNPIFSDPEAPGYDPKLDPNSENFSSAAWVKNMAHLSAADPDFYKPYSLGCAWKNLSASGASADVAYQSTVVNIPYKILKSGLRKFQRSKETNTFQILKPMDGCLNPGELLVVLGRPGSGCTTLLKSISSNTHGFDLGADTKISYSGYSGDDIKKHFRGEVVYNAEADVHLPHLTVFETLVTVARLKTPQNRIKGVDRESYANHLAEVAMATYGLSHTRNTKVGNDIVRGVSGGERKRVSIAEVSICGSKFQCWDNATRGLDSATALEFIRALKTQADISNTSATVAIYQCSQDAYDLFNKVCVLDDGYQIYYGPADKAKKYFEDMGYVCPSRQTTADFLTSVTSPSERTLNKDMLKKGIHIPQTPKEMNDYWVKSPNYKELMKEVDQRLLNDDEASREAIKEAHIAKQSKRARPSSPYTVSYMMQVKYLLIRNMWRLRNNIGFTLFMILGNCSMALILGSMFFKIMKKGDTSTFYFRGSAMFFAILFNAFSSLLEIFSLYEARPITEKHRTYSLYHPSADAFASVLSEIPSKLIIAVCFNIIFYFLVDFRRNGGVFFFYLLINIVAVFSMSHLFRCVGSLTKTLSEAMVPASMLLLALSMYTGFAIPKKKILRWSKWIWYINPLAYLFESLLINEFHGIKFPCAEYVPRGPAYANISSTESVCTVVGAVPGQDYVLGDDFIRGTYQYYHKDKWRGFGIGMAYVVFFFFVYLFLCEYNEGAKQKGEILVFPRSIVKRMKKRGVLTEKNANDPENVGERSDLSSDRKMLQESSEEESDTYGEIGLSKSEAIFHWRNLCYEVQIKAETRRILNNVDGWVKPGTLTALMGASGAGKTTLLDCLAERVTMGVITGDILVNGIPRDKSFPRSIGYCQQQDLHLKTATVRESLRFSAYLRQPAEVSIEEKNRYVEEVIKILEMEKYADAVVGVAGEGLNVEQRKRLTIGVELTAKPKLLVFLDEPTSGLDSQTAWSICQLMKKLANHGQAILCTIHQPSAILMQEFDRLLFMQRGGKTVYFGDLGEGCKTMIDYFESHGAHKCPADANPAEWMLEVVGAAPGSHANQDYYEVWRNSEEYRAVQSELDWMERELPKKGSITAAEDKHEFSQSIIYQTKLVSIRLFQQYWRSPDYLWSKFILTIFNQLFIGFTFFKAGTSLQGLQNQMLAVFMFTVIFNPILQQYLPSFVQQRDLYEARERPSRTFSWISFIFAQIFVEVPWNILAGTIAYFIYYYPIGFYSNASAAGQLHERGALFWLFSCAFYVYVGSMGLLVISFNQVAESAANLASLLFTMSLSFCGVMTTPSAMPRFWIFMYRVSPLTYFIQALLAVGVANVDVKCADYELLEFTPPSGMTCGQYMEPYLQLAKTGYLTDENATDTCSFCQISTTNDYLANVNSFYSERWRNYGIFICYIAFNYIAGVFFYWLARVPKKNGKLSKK

- fraction bound compared to wildtype Dfm1 [1]: < 5%
- fraction bound compared to wildtype Dfm1 [2]: < 5%
- fraction bound compared to wildtype Dfm1 [3]: < 5%
Substance: Dfm1-5Ashp (from UniProt Q12743 1-341) (natural protein)
